Measured values reported in patent US20210363245A1.
Where two headings read alike, the source gives them in different places. One block for each substance: values may come before it.

Experiments:
Experiment in all cases: cell-based or functional assay
[1] = target: CD19 (UniProt P15391)
[2] = target: CD20 (human) (UniProt P11836)
[3] = target: CD19 (UniProt P15391); remark: listed apart in the source
[4] = target: CD20 (human) (UniProt P11836); remark: listed apart in the source
[5] = target: CD19 (UniProt P15391); remark: listed apart in the source
[6] = target: CD20 (human) (UniProt P11836); remark: listed apart in the source
[7] = target: CD19 (UniProt P15391); remark: listed apart in the source
[8] = target: CD20 (human) (UniProt P11836); remark: listed apart in the source

UniProt P15391, sequence (P15391 20-556 limits assumed): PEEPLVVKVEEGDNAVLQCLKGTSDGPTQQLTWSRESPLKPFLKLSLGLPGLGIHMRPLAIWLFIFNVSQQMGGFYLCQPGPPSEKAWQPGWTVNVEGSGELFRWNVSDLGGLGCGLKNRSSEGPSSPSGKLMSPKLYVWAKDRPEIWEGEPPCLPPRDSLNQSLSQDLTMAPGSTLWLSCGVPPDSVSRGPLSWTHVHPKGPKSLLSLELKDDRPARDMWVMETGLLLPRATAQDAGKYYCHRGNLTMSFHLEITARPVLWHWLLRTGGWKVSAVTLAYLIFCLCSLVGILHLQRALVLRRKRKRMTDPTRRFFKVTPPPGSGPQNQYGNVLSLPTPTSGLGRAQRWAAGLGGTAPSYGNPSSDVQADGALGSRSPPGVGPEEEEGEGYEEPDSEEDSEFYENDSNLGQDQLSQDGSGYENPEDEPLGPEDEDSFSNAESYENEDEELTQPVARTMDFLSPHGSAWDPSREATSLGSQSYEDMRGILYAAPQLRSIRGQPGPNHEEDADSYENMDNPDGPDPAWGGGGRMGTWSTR
UniProt P11836, sequence (P11836 whole entry): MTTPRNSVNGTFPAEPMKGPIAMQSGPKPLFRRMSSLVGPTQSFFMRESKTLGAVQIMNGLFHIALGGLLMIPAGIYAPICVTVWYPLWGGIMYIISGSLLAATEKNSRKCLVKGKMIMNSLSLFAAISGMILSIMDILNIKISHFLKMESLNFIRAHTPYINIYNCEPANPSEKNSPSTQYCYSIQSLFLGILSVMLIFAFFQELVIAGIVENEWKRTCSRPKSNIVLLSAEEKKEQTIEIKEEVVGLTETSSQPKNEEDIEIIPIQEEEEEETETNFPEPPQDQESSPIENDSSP

- IFNγ release (ELISA), overnight co-culture with CD19-K562 [1]: 1050 pg/mL
- IL-2 release (ELISA), overnight co-culture with CD19-K562 [1]: < 16 pg/mL
- IFNγ release (ELISA), overnight co-culture with CD20-K562 [2]: 56700 pg/mL
- IFNγ release (ELISA), overnight co-culture with Nalm6 [2]: 1290 pg/mL
- IFNγ release (ELISA), overnight co-culture with ST486 [2]: 14300 pg/mL
- IFNγ release (ELISA), overnight co-culture with Toledo [2]: 7770 pg/mL
- IL-2 release (ELISA), overnight co-culture with CD20-K562 [2]: 4620 pg/mL
- IL-2 release (ELISA), overnight co-culture with Nalm6 [2]: < 16 pg/mL
- IL-2 release (ELISA), overnight co-culture with ST486 [2]: 215 pg/mL
- IL-2 release (ELISA), overnight co-culture with Toledo [2]: 104 pg/mL
- IFNγ release (ELISA), overnight co-culture with CD19-K562 [3]: 55 pg/mL
- IFNγ release (ELISA), overnight co-culture with CD20-K562 [4]: 36500 pg/mL
- IFNγ release (ELISA), overnight co-culture with Nalm6 [4]: 800 pg/mL
- IFNγ release (ELISA), overnight co-culture with ST486 [4]: 9070 pg/mL
- IFNγ release (ELISA), overnight co-culture with Toledo [4]: 6590 pg/mL
Substance: C2B8-CD828Z

- IFNγ release (ELISA), overnight co-culture with CD19-K562 [5]: 13900 pg/mL
- IFNγ release (ELISA), overnight co-culture with CD20-K562 [6]: 118 pg/mL
- IFNγ release (ELISA), overnight co-culture with CD19-K562 [1]: 21200 pg/mL
- IFNγ release (ELISA), overnight co-culture with Nalm6 [1]: 6940 pg/mL
- IFNγ release (ELISA), overnight co-culture with ST486 [1]: 745 pg/mL
- IFNγ release (ELISA), overnight co-culture with SU-DHL-4 [1]: 2280 pg/mL
- IFNγ release (ELISA), overnight co-culture with Toledo [1]: 4570 pg/mL
- IL-2 release (ELISA), overnight co-culture with CD19-K562 [1]: 616 pg/mL
- IL-2 release (ELISA), overnight co-culture with Nalm6 [1]: 111 pg/mL
- IL-2 release (ELISA), overnight co-culture with ST486 [1]: < 16 pg/mL
- IL-2 release (ELISA), overnight co-culture with SU-DHL-4 [1]: < 16 pg/mL
- IL-2 release (ELISA), overnight co-culture with Toledo [1]: 55 pg/mL
- IFNγ release (ELISA), overnight co-culture with CD20-K562 [2]: 43 pg/mL
- IL-2 release (ELISA), overnight co-culture with CD20-K562 [2]: < 16 pg/mL
- IFNγ release (ELISA), overnight co-culture with CD19-K562 [7]: 13300 pg/mL
- IFNγ release (ELISA), overnight co-culture with Nalm6 [7]: 6520 pg/mL
- IFNγ release (ELISA), overnight co-culture with ST486 [7]: 1430 pg/mL
- IFNγ release (ELISA), overnight co-culture with CD20-K562 [8]: 808 pg/mL
- IFNγ release (ELISA), overnight co-culture with CD19-K562 [3]: 31900 pg/mL
- IFNγ release (ELISA), overnight co-culture with Nalm6 [3]: 5700 pg/mL
- IFNγ release (ELISA), overnight co-culture with ST486 [3]: 3610 pg/mL
- IFNγ release (ELISA), overnight co-culture with SU-DHL-4 [3]: 5190 pg/mL
- IFNγ release (ELISA), overnight co-culture with Toledo [3]: 6470 pg/mL
- IFNγ release (ELISA), overnight co-culture with CD20-K562 [4]: 21 pg/mL
Substance: Hu19-CD828Z

- IFNγ release by Hu1928-2.1.2BB T cells with ST486 CD19-/- cells, human IgG at 0 ug/ml [2]: 6490 pg/mL
- IFNγ release by Hu1928-2.1.2BB T cells with ST486 CD19-/- cells, human IgG at 6.2 ug/ml [2]: 5840 pg/mL
- IFNγ release by Hu1928-2.1.2BB T cells with ST486 CD19-/- cells, human IgG at 12.5 ug/ml [2]: 5590 pg/mL
- IFNγ release by Hu1928-2.1.2BB T cells with ST486 CD19-/- cells, human IgG at 25 ug/ml [2]: 5470 pg/mL
- IFNγ release by Hu1928-2.1.2BB T cells with ST486 CD19-/- cells, human IgG at 50 ug/ml [2]: 6510 pg/mL
- IFNγ release by Hu1928-2.1.2BB T cells with ST486 CD19-/- cells, human IgG at 100 ug/ml [2]: 5920 pg/mL
Substance: Human IgG (antibody)
